B1: soluble fusion protein containing the extracellular domain of human AMHR2 and the Fc part of human IgG1 (AMHR2-Fc) (Fc fusion)
chain: PPNRRTCVFFEAPGVRGSTKTLGELLDTGTELPRAIRCLYSRCCFGIWNLTQDRAQVEMQGCRDSDEPGCESLHCDPSPRAHPSPGSTLFTCSCGTDFCNANYSHLPPPGSPGTPGSQGPQAAPGESIWMAL
B2: Mab22A2, monoclonal antibody against human AMH (antibody, V domains shown)
VH: QIRLVQSGPELKKPGETVKISCKASGYSFTNYLMHWVKQAPGEALKWMGWINTNIGQPTYAEDFKGRFVFSLEASISTAFLHINSLKDEDTATYFCTSGYFGYDWYFDVWGVGTTVTVSS
VL: DIQMTQSPDSLSASVGETVTITCRASENIQNYLAWYQHKQGKSPQLLVYNAQTLANGVSSRFSGSGSGTHYSLNIHSLQPEDFGTYYCQHFWGTPRTFGGGTKLIIK
notes: the text calls the antibody IgG1a; Mouse IgG1 kappa; also called biotinylated Mab22A2; source: mouse monoclonal, previously prepared by immunisation of female BALB/c mice with human AMH precursor; hybridoma cells

Columns and labels:
[1] = biological target: T1, human AMH procomplex (completely cleaved AMH, non-covalent complex of the N-terminal and C-terminal homodimers) (human); experiment: ELISA; AMH captured on Mab10.6 coated on plates, incubated with various concentrations of AMHR2-Fc; bound AMHR2-Fc detected with anti-human Fc antibody conjugated to HRP; n = 3
T1 sequence (P03971 25-560, looked up): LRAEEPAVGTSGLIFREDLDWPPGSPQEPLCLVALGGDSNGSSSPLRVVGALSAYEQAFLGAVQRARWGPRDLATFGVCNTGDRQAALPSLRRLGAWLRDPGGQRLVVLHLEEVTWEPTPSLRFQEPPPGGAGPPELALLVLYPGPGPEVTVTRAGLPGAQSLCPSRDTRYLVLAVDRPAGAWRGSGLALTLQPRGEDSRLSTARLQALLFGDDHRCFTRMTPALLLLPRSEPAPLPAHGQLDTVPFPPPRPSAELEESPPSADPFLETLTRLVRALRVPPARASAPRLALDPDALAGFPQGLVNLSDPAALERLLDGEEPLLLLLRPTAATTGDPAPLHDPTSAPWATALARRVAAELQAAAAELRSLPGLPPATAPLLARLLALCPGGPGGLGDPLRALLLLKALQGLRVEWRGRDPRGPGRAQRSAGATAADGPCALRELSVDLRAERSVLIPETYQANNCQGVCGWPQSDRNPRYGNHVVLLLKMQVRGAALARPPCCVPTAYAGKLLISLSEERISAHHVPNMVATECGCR

[2] = biological target: T2, ovine AMH procomplex present in serum (Ovis aries, UniProt T1SHH2); experiment: ELISA; AMH of bovine, ovine or mouse serum held on plate-captured AMHR2-Fc; detected with biotinylated Mab22A2 (0.5 ug/mL) and streptavidin-HRP; pair: Mab22A2 with serum AMH; settings: one partner purified
T2 construct: anti-Müllerian hormone, ovine, N-terminal pro-domain of the procomplex; anti-Müllerian hormone, ovine, C-terminal mature domain of the procomplex; source: endogenous, serum of one ovine sample

[3] = biological target: T3, mouse AMH procomplex present in serum (Mus musculus, strain , UniProt P27106); experiment: as above; settings: one partner purified
T3 construct: anti-Müllerian hormone, mouse, N-terminal pro-domain of the procomplex; anti-Müllerian hormone, mouse, C-terminal mature domain of the procomplex; source: endogenous, serum of one mouse sample

[4] = biological target: T4, bovine AMH procomplex present in serum (Bos taurus, UniProt P03972); experiment: as above; settings: one partner purified
T4 construct: anti-Müllerian hormone, bovine, N-terminal pro-domain of the procomplex; anti-Müllerian hormone, bovine, C-terminal mature domain of the procomplex; source: endogenous, serum of one bovine sample

T3 sequence (P27106 whole entry, looked up, the tested form may be a part, one chain of several): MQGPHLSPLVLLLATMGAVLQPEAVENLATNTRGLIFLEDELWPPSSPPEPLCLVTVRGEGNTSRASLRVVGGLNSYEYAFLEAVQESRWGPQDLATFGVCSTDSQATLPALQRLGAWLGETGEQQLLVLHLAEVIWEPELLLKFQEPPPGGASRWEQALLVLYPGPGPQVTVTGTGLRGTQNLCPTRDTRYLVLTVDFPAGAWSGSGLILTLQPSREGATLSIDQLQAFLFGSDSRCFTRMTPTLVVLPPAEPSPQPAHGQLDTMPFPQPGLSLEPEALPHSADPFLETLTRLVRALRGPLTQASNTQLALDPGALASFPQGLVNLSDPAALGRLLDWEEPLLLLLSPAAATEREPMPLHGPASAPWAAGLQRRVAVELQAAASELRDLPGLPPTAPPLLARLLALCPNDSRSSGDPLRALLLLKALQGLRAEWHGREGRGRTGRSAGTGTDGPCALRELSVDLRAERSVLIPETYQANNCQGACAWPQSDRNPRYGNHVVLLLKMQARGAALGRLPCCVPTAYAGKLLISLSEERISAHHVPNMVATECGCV

Binder | mean AUC of the ELISA curve [1] | binding result [2] | binding result [3] | binding result [4]
B1 | 75900 |  |  | 
B2 |  | binds | binds | binds

— paper PMC12032919, “A blocking antibody against anti-Müllerian hormone restores ovulation and normal androgen levels in a spontaneous rat model of polycystic ovary syndrome” (eBioMedicine, 2025)
